# In US20230322953A1 (HARBOUR BIOMED SHANGHAI, published 2023):
# Target: T1, human BCMA (human, UniProt Q02223 1-184)
# T1 construct: whole, on cells; also called hBCMA; TNFRSF17
# T1 sequence (looked up): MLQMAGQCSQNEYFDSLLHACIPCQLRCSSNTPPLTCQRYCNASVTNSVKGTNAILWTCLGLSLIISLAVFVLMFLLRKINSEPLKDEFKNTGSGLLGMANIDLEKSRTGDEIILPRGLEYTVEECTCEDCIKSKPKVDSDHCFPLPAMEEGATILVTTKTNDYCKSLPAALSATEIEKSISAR
# Assay: FACS on NCI-H929 cells
Binder,Maximum MFI,EC50
"PR001996 (bispecific antibody, IgG1, BCMAxCD3, Fab(cross Fd/LC)-Fc-VH (structure 13); CD3 of PR000511, BCMA VH of PR000943; IgG1 knob/hole, AAG) chain 1: EVQLLESGGGLVQPGGSLRLSCAASGFTFNTYAMNWVRQAPGKGLEWVSRIRSKYNNYATYYADSVKDRFTISRDDSKSTLYLQMNSLRAEDTAVYYCVRHGNFGNSYVSWFAYWGQGTLVTVSSASTKGPSVFPLAPSSKSTSGGTAALGCLVKDYFPEPVTVSWNSGALTSGVHTFPAVLQSSGLYSLSSVVTVPSSSLGTQTYICNVNHKPSNTKVDKKVEPKSC chain 2: QAVVTQEPSLTVSPGGTVTLTCRSSTGAVTTSNYANWVQQKPGQAPRGLIGGTNKRAPWTPARFSGSLLGDKAALTLLGAQPEDEAEYFCALWYSNLWVFGGGTKLTVLGQPKAAPSVTLFPPSSEELQANKATLVCLISDFYPGAVTVAWKADSSPVKAGVETTTPSKQSNNKYAASSYLSLTPEQWKSHRSYSCQVTHEGSTVEKTVAPTECSDKTHTCPPCPAPEAAGGPSVFLFPPKPKDTLMISRTPEVTCVVVDVSHEDPEVKFNWYVDGVEVHNAKTKPREEQYNSTYRVVSVLTVLHQDWLNGKEYKCKVSNKALGAPIEKTISKAKGQPREPQVYTLPPCREEMTKNQVSLWCLVKGFYPSDIAVEWESNGQPENNYKTTPPVLDSDGSFFLYSKLTVDKSRWQQGNVFSCSVMHEALHNHYTQKSLSLSPGK chain 3: EVQLVETGGGLIQPGGSLRLSCAASGFPVSSNYMSWVRQAPGKGLEWVSVIFSGGRTYYADSVKGRFTISRDNSKNTLYLQMNSLRAEDTAVYYCARRNWIDGRDAFDIWGQGTMVTVSSASEPKSSDKTHTCPPCPAPEAAGGPSVFLFPPKPKDTLMISRTPEVTCVVVDVSHEDPEVKFNWYVDGVEVHNAKTKPREEQYNSTYRVVSVLTVLHQDWLNGKEYKCKVSNKALGAPIEKTISKAKGQPREPQVCTLPPSREEMTKNQVSLSCAVKGFYPSDIAVEWESNGQPENNYKTTPPVLDSDGSFFLVSKLTVDKSRWQQGNVFSCSVMHEALHNHYTQKSLSLSPGK",3320,
"PR001998 (bispecific antibody, IgG1, BCMAxCD3, Fab(cross Fd/LC)-Fc-VH (structure 13); CD3 of PR000511, BCMA VH of PR001046; IgG1 knob/hole, AAG) chain 1: EVQLLESGGGLVQPGGSLRLSCAASGFTFNTYAMNWVRQAPGKGLEWVSRIRSKYNNYATYYADSVKDRFTISRDDSKSTLYLQMNSLRAEDTAVYYCVRHGNFGNSYVSWFAYWGQGTLVTVSSASTKGPSVFPLAPSSKSTSGGTAALGCLVKDYFPEPVTVSWNSGALTSGVHTFPAVLQSSGLYSLSSVVTVPSSSLGTQTYICNVNHKPSNTKVDKKVEPKSC chain 2: QAVVTQEPSLTVSPGGTVTLTCRSSTGAVTTSNYANWVQQKPGQAPRGLIGGTNKRAPWTPARFSGSLLGDKAALTLLGAQPEDEAEYFCALWYSNLWVFGGGTKLTVLGQPKAAPSVTLFPPSSEELQANKATLVCLISDFYPGAVTVAWKADSSPVKAGVETTTPSKQSNNKYAASSYLSLTPEQWKSHRSYSCQVTHEGSTVEKTVAPTECSDKTHTCPPCPAPEAAGGPSVFLFPPKPKDTLMISRTPEVTCVVVDVSHEDPEVKFNWYVDGVEVHNAKTKPREEQYNSTYRVVSVLTVLHQDWLNGKEYKCKVSNKALGAPIEKTISKAKGQPREPQVYTLPPCREEMTKNQVSLWCLVKGFYPSDIAVEWESNGQPENNYKTTPPVLDSDGSFFLYSKLTVDKSRWQQGNVFSCSVMHEALHNHYTQKSLSLSPGK chain 3: EVQLVETGGGLIQPGGSLRLSCAASGFTVSDNYMTWVRQAPGKGLEWVSVIFSGGNTYYADSVKGRFTISRDNAKNTLYLQMNSLRAEDTALYYCARRNYDDTRGTDVFDIWGQGTMVTVSSASEPKSSDKTHTCPPCPAPEAAGGPSVFLFPPKPKDTLMISRTPEVTCVVVDVSHEDPEVKFNWYVDGVEVHNAKTKPREEQYNSTYRVVSVLTVLHQDWLNGKEYKCKVSNKALGAPIEKTISKAKGQPREPQVCTLPPSREEMTKNQVSLSCAVKGFYPSDIAVEWESNGQPENNYKTTPPVLDSDGSFFLVSKLTVDKSRWQQGNVFSCSVMHEALHNHYTQKSLSLSPGK",3260,
"PR002000 (bispecific antibody, IgG1, BCMAxCD3, scFv(VL-VH)-Fc-VH (structure 20); CD3 scFv of PR000510, BCMA VH of PR000943; IgG1 knob/hole, AAG) chain 1: QAVVTQEPSLTVSPGGTVTLTCRSSTGAVTTSNYANWVQQKPGQAPRGLIGGTNKRAPWTPARFSGSLLGDKAALTLLGAQPEDEAEYFCALWYSNLWVFGGGTKLTVLGGGQSGQGGSGGGGSEVQLVESGGGLVQPGGSLKLSCAASGFTFNTYAMNWVRQASGKGLEWVGRIRSKYNNYATYYADSVKDRFTISRDDSKSTLYLQMNSLKTEDTAVYYCVRHGNFGNSYVSWFAYWGQGTLVTVSSASEPKSSDKTHTCPPCPAPEAAGGPSVFLFPPKPKDTLMISRTPEVTCVVVDVSHEDPEVKFNWYVDGVEVHNAKTKPREEQYNSTYRVVSVLTVLHQDWLNGKEYKCKVSNKALGAPIEKTISKAKGQPREPQVYTLPPCREEMTKNQVSLWCLVKGFYPSDIAVEWESNGQPENNYKTTPPVLDSDGSFFLYSKLTVDKSRWQQGNVFSCSVMHEALHNHYTQKSLSLSPGK chain 2: EVQLVETGGGLIQPGGSLRLSCAASGFPVSSNYMSWVRQAPGKGLEWVSVIFSGGRTYYADSVKGRFTISRDNSKNTLYLQMNSLRAEDTAVYYCARRNWIDGRDAFDIWGQGTMVTVSSASEPKSSDKTHTCPPCPAPEAAGGPSVFLFPPKPKDTLMISRTPEVTCVVVDVSHEDPEVKFNWYVDGVEVHNAKTKPREEQYNSTYRVVSVLTVLHQDWLNGKEYKCKVSNKALGAPIEKTISKAKGQPREPQVCTLPPSREEMTKNQVSLSCAVKGFYPSDIAVEWESNGQPENNYKTTPPVLDSDGSFFLVSKLTVDKSRWQQGNVFSCSVMHEALHNHYTQKSLSLSPGK",4640,
"PR001997 (bispecific antibody, IgG1, BCMAxCD3, Fab(cross Fd/LC)-Fc-VH (structure 13); CD3 of PR000511, BCMA VH of PR001035; IgG1 knob/hole, AAG) chain 1: EVQLLESGGGLVQPGGSLRLSCAASGFTFNTYAMNWVRQAPGKGLEWVSRIRSKYNNYATYYADSVKDRFTISRDDSKSTLYLQMNSLRAEDTAVYYCVRHGNFGNSYVSWFAYWGQGTLVTVSSASTKGPSVFPLAPSSKSTSGGTAALGCLVKDYFPEPVTVSWNSGALTSGVHTFPAVLQSSGLYSLSSVVTVPSSSLGTQTYICNVNHKPSNTKVDKKVEPKSC chain 2: QAVVTQEPSLTVSPGGTVTLTCRSSTGAVTTSNYANWVQQKPGQAPRGLIGGTNKRAPWTPARFSGSLLGDKAALTLLGAQPEDEAEYFCALWYSNLWVFGGGTKLTVLGQPKAAPSVTLFPPSSEELQANKATLVCLISDFYPGAVTVAWKADSSPVKAGVETTTPSKQSNNKYAASSYLSLTPEQWKSHRSYSCQVTHEGSTVEKTVAPTECSDKTHTCPPCPAPEAAGGPSVFLFPPKPKDTLMISRTPEVTCVVVDVSHEDPEVKFNWYVDGVEVHNAKTKPREEQYNSTYRVVSVLTVLHQDWLNGKEYKCKVSNKALGAPIEKTISKAKGQPREPQVYTLPPCREEMTKNQVSLWCLVKGFYPSDIAVEWESNGQPENNYKTTPPVLDSDGSFFLYSKLTVDKSRWQQGNVFSCSVMHEALHNHYTQKSLSLSPGK chain 3: EVQLVETGGGLIQPGGSLRLSCAASGFTVSSNYMTWVRQAPGKGLEWVSVIFSGGSTYYADSVKGRFTISRDNSKNTLYLQMNSLRAEDTAVYYCARRIAVAGHDVFDIWGQGTMVTVSSASEPKSSDKTHTCPPCPAPEAAGGPSVFLFPPKPKDTLMISRTPEVTCVVVDVSHEDPEVKFNWYVDGVEVHNAKTKPREEQYNSTYRVVSVLTVLHQDWLNGKEYKCKVSNKALGAPIEKTISKAKGQPREPQVCTLPPSREEMTKNQVSLSCAVKGFYPSDIAVEWESNGQPENNYKTTPPVLDSDGSFFLVSKLTVDKSRWQQGNVFSCSVMHEALHNHYTQKSLSLSPGK",1460,
"PR001999 (bispecific antibody, IgG1, CD3 scFv of PR000510, BCMA VH of PR000940; IgG1 knob/hole, AAG) chain 1: QAVVTQEPSLTVSPGGTVTLTCRSSTGAVTTSNYANWVQQKPGQAPRGLIGGTNKRAPWTPARFSGSLLGDKAALTLLGAQPEDEAEYFCALWYSNLWVFGGGTKLTVLGGGQSGQGGSGGGGSEVQLVESGGGLVQPGGSLKLSCAASGFTFNTYAMNWVRQASGKGLEWVGRIRSKYNNYATYYADSVKDRFTISRDDSKSTLYLQMNSLKTEDTAVYYCVRHGNFGNSYVSWFAYWGQGTLVTVSSASEPKSSDKTHTCPPCPAPEAAGGPSVFLFPPKPKDTLMISRTPEVTCVVVDVSHEDPEVKFNWYVDGVEVHNAKTKPREEQYNSTYRVVSVLTVLHQDWLNGKEYKCKVSNKALGAPIEKTISKAKGQPREPQVYTLPPCREEMTKNQVSLWCLVKGFYPSDIAVEWESNGQPENNYKTTPPVLDSDGSFFLYSKLTVDKSRWQQGNVFSCSVMHEALHNHYTQKSLSLSPGK chain 2: EVQLLESGGGLVQPGGSLRLSCAASGFTFSSYAMIWVRQAPGKGLEWVSGISESGGSTYYADSVKGRFTISRDNSKNTLYLQMNSLRAEDTAVYFCVKDLDDILTGYYKDYWGQGTLVTVSSASEPKSSDKTHTCPPCPAPEAAGGPSVFLFPPKPKDTLMISRTPEVTCVVVDVSHEDPEVKFNWYVDGVEVHNAKTKPREEQYNSTYRVVSVLTVLHQDWLNGKEYKCKVSNKALGAPIEKTISKAKGQPREPQVCTLPPSREEMTKNQVSLSCAVKGFYPSDIAVEWESNGQPENNYKTTPPVLDSDGSFFLVSKLTVDKSRWQQGNVFSCSVMHEALHNHYTQKSLSLSPGK",3480,
"PR003872 (bispecific antibody, human IgG1, lambda, L234A L235A, BCMAxCD3, Fab-Fc-VH (structure 11); CD3 Fab of PR003886, BCMA VH of PR004567; IgG1 knob/hole, LALA) light: QAVVTQEPSLTVSPGGTVTLTCRSSTGAVTTSNYANWVQQKPGQAPRGLIGGTNKRAPWTPARFSGSLLGDKAALTLLGAQPEDEAEYFCALWYSNLWVFGGGTKLTVLGQPKAAPSVTLFPPSSEELQANKATLVCLISDFYPGAVTVAWKADSSPVKAGVETTTPSKQSNNKYAASSYLSLTPEQWKSHRSYSCQVTHEGSTVEKTVAPTECS heavy: not shown EVQLVETGGGLIQPGGSLRLSCAASGFTVSDSYMTWVRQAPGKGLEWVSVIFSGGKTYVADSVKGRFTISRDNAKNTLYLQMNSLRAEDTALYYCARRNYDQTRGTDVFDIWGQGTMVTVSSASEPKSSDKTHTCPPCPAPEAAGGPSVFLFPPKPKDTLMISRTPEVTCVVVDVSHEDPEVKFNWYVDGVEVHNAKTKPREEQYNSTYRVVSVLTVLHQDWLNGKEYKCKVSNKALPAPIEKTISKAKGQPREPQVCTLPPSREEMTKNQVSLSCAVKGFYPSDIAVEWESNGQPENNYKTTPPVLDSDGSFFLVSKLTVDKSRWQQGNVFSCSVMHEALHNHYTQKSLSLSPGK",11300,1.1 nM
"PR003874 (bispecific antibody, human IgG1, lambda, L234A L235A, BCMAxCD3, Fab-Fc-VH (structure 11); CD3 Fab of PR003886, BCMA VH of PR004569; IgG1 knob/hole, LALA) light: QAVVTQEPSLTVSPGGTVTLTCRSSTGAVTTSNYANWVQQKPGQAPRGLIGGTNKRAPWTPARFSGSLLGDKAALTLLGAQPEDEAEYFCALWYSNLWVFGGGTKLTVLGQPKAAPSVTLFPPSSEELQANKATLVCLISDFYPGAVTVAWKADSSPVKAGVETTTPSKQSNNKYAASSYLSLTPEQWKSHRSYSCQVTHEGSTVEKTVAPTECS heavy: not shown EVQLVETGGGLIQPGGSLRLSCAASGFTVSDSYMTWVRQAPGKGLEWVSVIFSGGRTYYSDSVKGRFTISRDNAKNTLYLQMNSLRAEDTALYYCARRNYDQTRGTDVFDIWGQGTMVTVSSASEPKSSDKTHTCPPCPAPEAAGGPSVFLFPPKPKDTLMISRTPEVTCVVVDVSHEDPEVKFNWYVDGVEVHNAKTKPREEQYNSTYRVVSVLTVLHQDWLNGKEYKCKVSNKALPAPIEKTISKAKGQPREPQVCTLPPSREEMTKNQVSLSCAVKGFYPSDIAVEWESNGQPENNYKTTPPVLDSDGSFFLVSKLTVDKSRWQQGNVFSCSVMHEALHNHYTQKSLSLSPGK",11000,1.5 nM
